Patent US12304939B2, “EGFR and C-met fibronectin type III domain binding molecules” (Janssen Biotech, Inc., priority 2012, dated 2025)

System: not listed separately
Assay: Differential scanning calorimetry in PBS (thermal stability)
Assay type: physicochemical
Conditions: DSC in PBS, c-Met-binding FN3 domains

Row | Molecule | Thermal Stability (Tm) [C]
1 | P114AR7P93-G8: c-Met-binding FN3 domain, SEQ ID NO: 39 (protein, c-Met binding FN3 domain) LPAPKNLVVSRVTEDSARLSWTAPDAAFDSFWIRYFEFLGSGEAIVLTVPGSERSYDLTDLKPGTEYGVTINGVKGGRVSTPLSAIFTT | 76.8
2 | P114AR7P92-F6: c-Met-binding FN3 domain, SEQ ID NO: 35 (protein, c-Met binding FN3 domain) LPAPKNLVVSRVTEDSARLSWTAPDAAFDSFWIRYFEFLGSGEAIVLTVPGSERSYDLTGLKPGTEYVVNILGVKGGGLSVPLSAIFTT | 76.8
3 | P114AR7P95-F10: c-Met-binding FN3 domain, SEQ ID NO: 47 (protein, c-Met binding FN3 domain) LPAPKNLVVSRVTEDSARLSWTAPDAAFDSFWIRYFEFTTAGEAIVLTVPGSERSYDLTGLKPGTEYVVNIMGVKGGSISPPLSAIFTT | 85.2
4 | P114AR7P95-H8: c-Met-binding FN3 domain, SEQ ID NO: 49 (protein, c-Met binding FN3 domain) LPAPKNLVVSRVTEDSARLSWTAPDAAFDSFWIRYFEFVSKGEAIVLTVPGSERSYDLTGLKPGTEYVVNIMGVKGGSISPPLSAIFTT | 83
5 | P114AR7P94-A3: c-Met-binding FN3 domain, SEQ ID NO: 41 (protein, c-Met binding FN3 domain) LPAPKNLVVSRVTEDSARLSWTAPDAAFDSFWIRYFEFLGSGEAIVLTVPGSERSYDLTGLKPGTEYVVNIMGVKGGKISPPLSAIFTT | 86.2
6 | P114AR7P94-E5: c-Met-binding FN3 domain, SEQ ID NO: 42 (protein, c-Met binding FN3 domain) LPAPKNLVVSRVTEDSARLSWTAPDAAFDSFWIRYFEFLGSGEAIVLTVPGSERSYDLTGLKPGTEYAVNIMGVKGGRVSVPLSAIFTT | 80
7 | P114AR7P95-G7: c-Met-binding FN3 domain, SEQ ID NO: 48 (protein, c-Met binding FN3 domain) LPAPKNLVVSRVTEDSARLSWTAPDAAFDSFWIRYFELLSTGEAIVLTVPGSERSYDLTGLKPGTEYVVNIMGVKGGSISPPLSAIFTT | 87.2
8 | P114AR7P95-D4: c-Met-binding FN3 domain, SEQ ID NO: 45 (protein, c-Met binding FN3 domain) LPAPKNLVVSRVTEDSARLSWTAPDAAFDSFWIRYFEFLGSGEAIVLTVPGSERSYDLTGLKPGTEYVVQILGVKGGYISIPLSAIFTT | 85.3
9 | P114AR7P93-H9: c-Met-binding FN3 domain, SEQ ID NO: 40 (protein, c-Met binding FN3 domain) LPAPKNLVVSRVTEDSARLSWTAPDAAFDSFWIRYFEFLGSGEAIVLTVPGSERSYDLTGLKPGTEYVVQIIGVKGGHISLPLSAIFTT | 88.2
10 | P114AR5P74-A5: c-Met-binding FN3 domain, SEQ ID NO: 32 (protein, c-Met binding FN3 domain) LPAPKNLVVSRVTEDSARLSWTAPDAAFDSFWIRYDEVVVGGEAIVLTVPGSERSYDLTGLKPGTEYYVNILGVKGGSISVPLSAIFTT | 74.1

System: H292 cells
Assay: Inhibition of proliferation of HGF-induced H292 cells
Assay type: cell-based, human
Conditions: bispecific molecules
Description: Inhibition of tumor cell proliferation can be measured using standard methods and methods described herein.
The proliferation assay was completed using different combinations EGFR and c-Met binding FN3 domains either as a mixture or linked in a bispecific format. […] This confirmed that the avidity effect observed at the level of the receptors (FIG. 4 and FIG. 5) translates into an improvement in inhibiting cell signaling (Table 12) and cell proliferation (Table 13).
Inhibition of human tumor cell growth was assessed in standard attachment culture as described in Examples 3 or 6, or in low attachment conditions.

Row | Molecule | IC50 [nM]
11 | ECB94: bispecific SEQ ID NO: 61: P54AR4-83v22, (AP)5, P114AR7P94-A3v22 (protein, bispecific EGFR/cMet binding molecule) MLPAPKNLVVSEVTEDSARLSWDDPWAFYESFLIQYQESEKVGEAIVLTVPGSERSYDLTGLKPGTEYTVSIYGVHNVYKDTNIRGLPLSAIFTTAPAPAPAPAPLPAPKNLVVSRVTEDSARLSWTAPDAAFDSFWIRYFEFLGSGEAIVLTVPGSERSYDLTGLKPGTEYVVNILGVKGGKISPPLSAIFTT | 29.6
12 | ECB96: bispecific SEQ ID NO: 63: P54AR4-83v22, (AP)5, P114AR9P122-A7v2 (protein, bispecific EGFR/cMet binding molecule) MLPAPKNLVVSEVTEDSARLSWDDPWAFYESFLIQYQESEKVGEAIVLTVPGSERSYDLTGLKPGTEYTVSIYGVHNVYKDTNIRGLPLSAIFTTAPAPAPAPAPLPAPKNLVVSRVTEDSARLSWTAPDAAFDSFWIRYFEFVSKGDAIVLTVPGSERSYDLTGLKPGTEYVVNILGVKGGSISPPLSAIFTT | 9480
13 | ECB106: bispecific SEQ ID NO: 65: P54AR4-83v23, (AP)5, P114AR7P94-A3v22 (protein, bispecific EGFR/cMet binding molecule) MLPAPKNLVVSEVTEDSARLSWDDPHAFYESFLIQYQESEKVGEAIVLTVPGSERSYDLTGLKPGTEYTVSIYGVHNVYKDTNIRGLPLSAIFTTAPAPAPAPAPLPAPKNLVVSRVTEDSARLSWTAPDAAFDSFWIRYFEFLGSGEAIVLTVPGSERSYDLTGLKPGTEYVVNILGVKGGKISPPLSAIFTT | 484
14 | ECB108: bispecific SEQ ID NO: 67: P54AR4-83v23, (AP)5, P114AR9P122-A7v2 (protein, bispecific EGFR/cMet binding molecule) MLPAPKNLVVSEVTEDSARLSWDDPHAFYESFLIQYQESEKVGEAIVLTVPGSERSYDLTGLKPGTEYTVSIYGVHNVYKDTNIRGLPLSAIFTTAPAPAPAPAPLPAPKNLVVSRVTEDSARLSWTAPDAAFDSFWIRYFEFVSKGDAIVLTVPGSERSYDLTGLKPGTEYVVNILGVKGGSISPPLSAIFTT | 11400
15 | ECB95: bispecific SEQ ID NO: 62: P54AR4-83v22, (AP)5, P114AR9P121-A6v2 (protein, bispecific EGFR/cMet binding molecule) MLPAPKNLVVSEVTEDSARLSWDDPWAFYESFLIQYQESEKVGEAIVLTVPGSERSYDLTGLKPGTEYTVSIYGVHNVYKDTNIRGLPLSAIFTTAPAPAPAPAPLPAPKNLVVSRVTEDSARLSWTAPDAAFDSFWIRYFEFVGSGEAIVLTVPGSERSYDLTGLKPGTEYVVNILGVKGGSISPPLSAIFTT | 383
16 | ECB97: bispecific SEQ ID NO: 64: P54AR4-83v22, (AP)5, P114AR7P95-C5v2 (protein, bispecific EGFR/cMet binding molecule) MLPAPKNLVVSEVTEDSARLSWDDPWAFYESFLIQYQESEKVGEAIVLTVPGSERSYDLTGLKPGTEYTVSIYGVHNVYKDTNIRGLPLSAIFTTAPAPAPAPAPLPAPKNLVVSRVTEDSARLSWTAPDAAFDSFWIRYFEFLGSGEAIVLTVPGSERSYDLTGLKPGTEYVVNILSVKGGSISPPLSAIFTT | 31
17 | ECB109: bispecific SEQ ID NO: 68: P54AR4-83v23, (AP)5, P114AR7P95-C5v2 (protein, bispecific EGFR/cMet binding molecule) MLPAPKNLVVSEVTEDSARLSWDDPHAFYESFLIQYQESEKVGEAIVLTVPGSERSYDLTGLKPGTEYTVSIYGVHNVYKDTNIRGLPLSAIFTTAPAPAPAPAPLPAPKNLVVSRVTEDSARLSWTAPDAAFDSFWIRYFEFLGSGEAIVLTVPGSERSYDLTGLKPGTEYVVNILSVKGGSISPPLSAIFTT | 574
18 | ECB107: bispecific SEQ ID NO: 66: P54AR4-83v23, (AP)5, P114AR9P121-A6v2 (protein, bispecific EGFR/cMet binding molecule) MLPAPKNLVVSEVTEDSARLSWDDPHAFYESFLIQYQESEKVGEAIVLTVPGSERSYDLTGLKPGTEYTVSIYGVHNVYKDTNIRGLPLSAIFTTAPAPAPAPAPLPAPKNLVVSRVTEDSARLSWTAPDAAFDSFWIRYFEFVGSGEAIVLTVPGSERSYDLTGLKPGTEYVVNILGVKGGSISPPLSAIFTT | 2640

System: NCI-H292 cells expressing human HGF
Assay: Tumor efficacy study with four bispecific EGFR/c-Met molecules, H292-HGF xenografts
Assay type: in vivo, SCID Beige mice
Conditions: 25 mg/kg three times per week
Method: One week after implantation, mice were stratified into groups with equivalent tumor volumes (mean tumor volume=77.9+/−1.7 mm3). Mice were dosed three times per week with the bispecific molecules and tumor volumes were recorded twice weekly.

Row | Molecule | tumor growth (tumor growth inhibition, TGI)
19 | ECB18: bispecific SEQ ID NO: 118: P54AR4-83v2, (AP)5, P114AR5P74-A5, linked to albumin binding domain (protein, Bispecific EGFR/c-Met binding molecule) MLPAPKNLVVSEVTEDSARLSWDDPWAFYESFLIQYQESEKVGEAIVLTVPGSERSYDLTGLKPGTEYTVSIYGVHNVYKDTNMRGLPLSAIFTTAPAPAPAPAPLPAPKNLVVSRVTEDSARLSWTAPDAAFDSFWIRYDEVVVGGEAIVLTVPGSERSYDLTGLKPGTEYYVNILGVKGGSISVPLSAIFTTAPAPAPAPAPLAEAKVLANRELDKYGVSDYYKNLINNAKTVEGVKALLDEILAALP | reduced tumor growth

Same assay, conditions: 25 mg/kg three times per week; listed as P54AR4-83v2-P114AR5P74-A5

Row | Molecule | tumor growth (tumor growth inhibition, TGI)
20 | ECB18: bispecific SEQ ID NO: 118: P54AR4-83v2, (AP)5, P114AR5P74-A5, linked to albumin binding domain (protein, Bispecific EGFR/c-Met binding molecule) MLPAPKNLVVSEVTEDSARLSWDDPWAFYESFLIQYQESEKVGEAIVLTVPGSERSYDLTGLKPGTEYTVSIYGVHNVYKDTNMRGLPLSAIFTTAPAPAPAPAPLPAPKNLVVSRVTEDSARLSWTAPDAAFDSFWIRYDEVVVGGEAIVLTVPGSERSYDLTGLKPGTEYYVNILGVKGGSISVPLSAIFTTAPAPAPAPAPLAEAKVLANRELDKYGVSDYYKNLINNAKTVEGVKALLDEILAALP | delay in tumor growth
